Consider 45 substances from publication PMC10499821.

The first experiment addresses GST-tagged Nsp3 Ubl1 (UniProt P0DTD1). Kind of experiment: SPOT array alanine scan. The note with it: parent: est. 0; read off a plot.
In the case of “NCOA2_(1074–1089) on the SPOT array L1079A”, the other: signal change in % was -10%.
Regarding “NCOA2_(1074–1089) on the SPOT array L1080A”, the other: signal change in % was -85%.
For “NCOA2_(1074–1089) on the SPOT array L1083A”, the other: signal change in % was -35%.
Still for that read-out and setting: the figure for “NCOA2_(1074–1089) on the SPOT array E1076A” is -40%; for “NCOA2_(1074–1089) on the SPOT array D1081A” it is -20%; for “NCOA2_(1074–1089) on the SPOT array S1074A” it is 0%.
In the case of “NCOA2_(1074–1089) on the SPOT array R1088A”, the other: signal change in % is -30%.
As for “NCOA2_(1074–1089) on the SPOT array D1075A”, the other: signal change in % was -5%.
On the same count and under the same terms, the result for “NCOA2_(1074–1089) on the SPOT array Q1082A” reads -45%.
In the case of “NCOA2_(1074–1089) on the SPOT array L1087A”, the other: signal change in % was -40%.
With “NCOA2_(1074–1089) on the SPOT array N1089A”, the other: signal change in % is -25%.
Turning to “NCOA2_(1074–1089) on the SPOT array L1085A”, the other: signal change in % was -50%.
For the substance “NCOA2_(1074–1089) on the SPOT array Y1084A”, the other: signal change in % is -62%.
As to “NCOA2_(1074–1089) on the SPOT array G1077A”, the other: signal change in % is -5%.

A further experiment concerns the target GST-tagged Nsp3 ADRP (UniProt P0DTD1). Kind of experiment: SPOT array alanine scan. The note with it: parent: est. -10; read off a plot.
With MBOAT1_(16–31) on the SPOT array H21A, the other: signal change in % is -55%.
MBOAT1_(16–31) on the SPOT array P30A: the other: signal change in % is -45%.
Same read-out and setting: the result for MBOAT1_(16–31) on the SPOT array S24A reads -90%; that for MBOAT1_(16–31) on the SPOT array G16A, -15%; that for MBOAT1_(16–31) on the SPOT array Y19A, 30%.
Same read-out and setting: the figure for MBOAT1_(16–31) on the SPOT array L31A is -25%; for MBOAT1_(16–31) on the SPOT array L20A it is -5%; for MBOAT1_(16–31) on the SPOT array P22A it is -70%.
As to MBOAT1_(16–31) on the SPOT array L26A, the other: signal change in % was -45%.
As to MBOAT1_(16–31) on the SPOT array I29A, the other: signal change in % is -5%.
As to MBOAT1_(16–31) on the SPOT array S17A, the other: signal change in % was -25%.
The same measure, in the same setting: the figure for MBOAT1_(16–31) on the SPOT array T18A is 10%.
As for MBOAT1_(16–31) on the SPOT array L23A, the other: signal change in % is -100%.
For the substance MBOAT1_(16–31) on the SPOT array L27A, the other: signal change in % is -20%.
Regarding MBOAT1_(16–31) on the SPOT array G28A, the other: signal change in % is -50%.
Same read-out and setting: the figure for MBOAT1_(16–31) on the SPOT array E25A is -100%.

In another experiment the target is GST-tagged Nsp16 (UniProt P0DTD1). Kind of experiment: SPOT array alanine scan. The note with it: parent: est. 0; read off a plot.
With ICA1L_(450–465) on the SPOT array W5A, the other: signal change in % is -100%.
Take ICA1L_(450–465) on the SPOT array D1A: the other: signal change in % was -25%.
Turning to ICA1L_(450–465) on the SPOT array L8A, the other: signal change in % was -35%.
Regarding ICA1L_(450–465) on the SPOT array M2A, the other: signal change in % is -57%.
For the substance ICA1L_(450–465) on the SPOT array L12A, the other: signal change in % was -20%.
With ICA1L_(450–465) on the SPOT array D11A, the other: signal change in % was -10%.
Same read-out and setting: the figure for ICA1L_(450–465) on the SPOT array L15A is -20%.
As to ICA1L_(450–465) on the SPOT array N7A, the other: signal change in % is -48%.
On to ICA1L_(450–465) on the SPOT array F9A, for which the other: signal change in % was -88%.
In the case of ICA1L_(450–465) on the SPOT array F6A, the other: signal change in % is -50%.
Same read-out and setting: the result for ICA1L_(450–465) on the SPOT array S3A reads -57%.
As for ICA1L_(450–465) on the SPOT array S16A, the other: signal change in % was -10%.
For the substance ICA1L_(450–465) on the SPOT array P14A, the other: signal change in % is -22%.

The next experiment has as its target FITC-DYRK1B_(394–409) (human) (UniProt Q9Y463). Kind of experiment: fluorescence polarisation.
Settings: not given
On to “Nsp16 (from UniProt P0DTD1 6799-7096) (enzyme)”, for which the Kd (usually the equilibrium constant for the complex coming apart) turned out to be 3000 nM.

The target of a further experiment is Nsp3 Ubl1 (SARS-CoV-2) (UniProt P0DTD1). Nature of the experiment: fluorescence polarisation.
Settings: not given
(Fluorescence polarisation rises when a labelled molecule tumbles more slowly, as on binding a larger partner.)
Take “N_(216–231) peptide (from UniProt P0DTC9 216-231)”: the fold higher KD than NCOA2 (1074–1089) came out at 2 fold.
